Assay results: patent US20230242902A1, “A HIGHLY ERROR-PRONE […] R[…] FOR TARGETED CONTINUOUS EVOLUTION IN VIVO” (The Regents of the University of California, priority 2017, published 2023)

How the values were obtained:
genomic URA3 locus = assay: Fluctuation tests of genomically encoded URA3 in the presence of TP-DNAP2 variants (AR-Y436); type: cell-based, S. cerevisiae; settings: for per-base substitution rate at genomic URA3 locus: TP-DNAP2 in trans, AR-Y436, (95% C.I.); for host genomic mutation rate: error-prone TP-DNAP2 variant present
Description: Fluctuation tests using genomically encoded URA3 were performed in the presence of TP-DNAP2 variants to determine the genomic per-base substitution rates, similarly to previously described protocols (Lang and Murray, 2008, Genetics, 178:67-82). AR-Y292 derived strains harboring the appropriate TP-DNAP2 variant encoded on a CEN6/ARS4 vector (with a HIS3 marker) were grown in liquid SC medium lacking uracil and histidine until saturation. Each strain was diluted 1:5,000 into SC medium lacking histidine and aliquoted into 48 replicates of 200 μL each. Cultures were grown for 48 hours at 30° C. to reach saturation. Saturated cultures were washed with 400 μL 0.9% NaCl and resuspended in 420 μL 0.9% NaCl. 400 μL from each replicate was spot plated on pre-dried solid SC medium lacking histidine and supplemented with 5-FOA (1 g/L). The residual 20 μL from six replicates were pooled, diluted, and plated on solid YPD medium to determine cell titers. Plates were allowed to dry before incubation at 30° C. Colonies were counted on titer plates after 2 days, and on spot plates after 5 days of growth. The expected number of mutants (m) was calculated using the MSS maximum likelihood estimator method via the FALCOR tool, and corrected for partial plating, as described above. To determine per-base substitution rates, the corrected m was normalized to the average cell titer, the URA3 copy number (1 in haploid yeast), and the target size for 5-FOA resistance via substitutions in URA3 (104 bp). 95% confidence intervals were similarly scaled.
Like p1 replication by TP-DNAP1, p2 replication by TP-DNAP2 occurs in the cytoplasm via a protein-primed mechanism, making it likely that p2 replication is orthogonal to host genome replication. To test this, CEN6/ARS4 vectors lacking TP-DNAP2, or encoding codon optimized versions of TP-DNAP2^WT, TP-DNAP2^S370Q, or TP-DNAP2^Y424Q were transformed into AR-Y436. AR-Y436 contains wt p1 and p2, as well as an intact URA3 locus in the host genome. Genomic per-base substitution rates were determined via fluctuation tests based on the frequency of 5-FOA resistant clones arising from mutations in the genomic URA3 locus, as previously described (Ravikumar et al., 2014, Nature Chemical Biology, 10:175-177; Lang and Murray, 2008, Genetics, 178:67-82). The substitution rich spectrum of URA3-disabling mutations makes this assay ideal for detecting whether the elevated substitution rate of TP-DNAP2^S370Q or TP-DNAP2^Y424Q contributes to genomic mutation. No increase in the host genomic mutation rate was observed when error-prone variants of TP-DNAP2^S370Q and TP-DNAP2^Y424Q were present (Table 8).

p2-delORF2-URA3 = assay: Complementation of native TP-DNAP2 deletion (p2-delORF2-URA3 replication in trans); type: cell-based, S. cerevisiae
Text: First, TP-DNAP2, which is ORF2 of p2, was deleted by homologous recombination of a synthetic cassette encoding URA3. Since p2 is a multi-copy plasmid, the resulting strain (GA-Y069) harbored a mixture of the parental wt p2 and the recombinant p2 with ORF2 deleted (p2-delORF2-URA3), along with unaltered p1. In this strain, both the wt p2 and recombinant p2-delORF2-URA3 plasmids rely on TP-DNAP2 encoded on the parental wt p2 plasmid for replication. Thus, loss of wt p2 should disable replication of p2-delORF2-URA3. […] Next, the same experiment was repeated in the presence of a codon-optimized TP-DNAP2 expressed in trans from a standard yeast CEN6/ARS4 nuclear plasmid (pGA55-reTP-DNAP2). […] Therefore, p2-derived plasmids can be replicated by TP-DNAP2 encoded on a standard nuclear plasmid, simplifying the characterization of p2 replication by error-prone TP-DNAP2 variants.

Row | Molecule | per-base substitution rate at genomic URA3 locus (genomic URA3 locus) | host genomic mutation rate (genomic URA3 locus) | ability to complement deletion of native TP-DNAP2 and sustain p2-delORF2-URA3 replication (p2-delORF2-URA3)
1 | S370Q: TP-DNAP2 variant (protein, listed as Kluyveromyces lactis) MNDELAFLNSQIDDYSDDIEFLRTEVFRINRYSKSIYSLMKNSSKEAIKETIEFNKYGQEIHSKIKEKEISLIEAIKLMEKKYKYLRSLNKTKDKSKKKKIHTKDIETLKTIYKTKADFDIRNFKNAETFTYENYSLLIPSEKELIDLIPEIEEDYSYYFYVSLTITGPTIFGGVTRKVPIIDTYGDINKDFYNKIKENITKVLDRVPFYEEKESEIICKKVLITLTVNKWESIDKWYKNVKSKSKKFKDFTLFLASDTSKNCVQQCVEYLGGKWNTNYSLEKMIPQQKIVTYIPLLMDIQYVQSMEDLISDFDEPNTDCKNIARLLKWNGHMGVITKIDKDVKINRIQRKRIIDVENKEVKEVFFDIEQFSDETKHQIPYLICWSYLGELYYRTGKNCIKEFVEEILSYNVDIILYAWYGSGYDYQHVLPYMKSKCIKDKYIIKNNMITYGELYYENAIIYLKDPYLFILTSLDKASKAFNVINKGEFPHSIIHSWEDLNKILPNWVKIQKRMIEYKDDNKLNIYYKNIEIFENDRNYNTILENAIEYCKVDVLAMEKVWIKFKKLLEKNLNITVSVKTFTLSQLSMKIMESKLPKYVKLYVPTLEEYSKIRNAIYGGRVISKNGIYEENIVYADVVSLYPSAMKLLKHSYGKPKLVDYIDFEKHGIYRVTLLNKHDQEPKNYLNFVPRRINRKLTWEWFKIHEGWYHTYDLIIAKSEGFDIYCHEGFEYPEKDYIFNDFIDTLYSMKETHTACSCEEQPCPIRMVAKIALNGGGYGKFVQKPIDKEIYIVKRDVVAGECDKLQENENGEICIGKRLVKRPLFYNLDSENYDKMIIEKEDEPIYSTQCGISILSASRYRLYKLCKQFENIDIIYSDTDSIFVKQKSVDWELFKSKCGSELGQLDSTIDDTKNAIISKMYIGGAKMYAFEYLNNKNKLITKLHCKGVPNYMLSLNQFKYLMESPDNTIAYKFEIIRRKLVNVITKDLIKDIKQT | 1.8 (1.0-2.8) ×10^−10 | No increase | not active enough to fully complement a deletion of the native TP-DNAP2
2 | Y424Q: TP-DNAP2 variant (protein, listed as Kluyveromyces lactis) MNDELAFLNSQIDDYSDDIEFLRTEVFRINRYSKSIYSLMKNSSKEAIKETIEFNKYGQEIHSKIKEKEISLIEAIKLMEKKYKYLRSLNKTKDKSKKKKIHTKDIETLKTIYKTKADFDIRNFKNAETFTYENYSLLIPSEKELIDLIPEIEEDYSYYFYVSLTITGPTIFGGVTRKVPIIDTYGDINKDFYNKIKENITKVLDRVPFYEEKESEIICKKVLITLTVNKWESIDKWYKNVKSKSKKFKDFTLFLASDTSKNCVQQCVEYLGGKWNTNYSLEKMIPQQKIVTYIPLLMDIQYVQSMEDLISDFDEPNTDCKNIARLLKWNGHMGVITKIDKDVKINRIQRKRIIDVENKEVKEVFFDIESFSDETKHQIPYLICWSYLGELYYRTGKNCIKEFVEEILSYNVDIILYAWYGSGQDYQHVLPYMKSKCIKDKYIIKNNMITYGELYYENAIIYLKDPYLFILTSLDKASKAFNVINKGEFPHSIIHSWEDLNKILPNWVKIQKRMIEYKDDNKLNIYYKNIEIFENDRNYNTILENAIEYCKVDVLAMEKVWIKFKKLLEKNLNITVSVKTFTLSQLSMKIMESKLPKYVKLYVPTLEEYSKIRNAIYGGRVISKNGIYEENIVYADVVSLYPSAMKLLKHSYGKPKLVDYIDFEKHGIYRVTLLNKHDQEPKNYLNFVPRRINRKLTWEWFKIHEGWYHTYDLIIAKSEGFDIYCHEGFEYPEKDYIFNDFIDTLYSMKETHTACSCEEQPCPIRMVAKIALNGGGYGKFVQKPIDKEIYIVKRDVVAGECDKLQENENGEICIGKRLVKRPLFYNLDSENYDKMIIEKEDEPIYSTQCGISILSASRYRLYKLCKQFENIDIIYSDTDSIFVKQKSVDWELFKSKCGSELGQLDSTIDDTKNAIISKMYIGGAKMYAFEYLNNKNKLITKLHCKGVPNYMLSLNQFKYLMESPDNTIAYKFEIIRRKLVNVITKDLIKDIKQT | 1.8 (1.0-2.9) ×10^−10 | No increase | not active enough to fully complement a deletion of the native TP-DNAP2
